Measurements from patent US20230295308A1, “ANTAGONISTIC BIPARATOPIC ANTIBODIES THAT SPECIFICALLY BIND FIBROBLAST GROWTH FACTOR RECEPTOR 2 AND METHODS OF USING SAME” (The Broad Institute, Inc., priority 2020, published 2023).
Entries after “also recorded” stand apart in the source; their conditions may differ.

B1: Biparatopic antibody B/N12 (bispecific antibody, V domains shown)
VH 1: EVQLLESGGGLVQPGGSLRLSCAASGFTFSSYAMSWVRQAPGKGLEWVSAISGSGTSTYYADSVKGRFTISRDNSKNTLYLQMNSLRAEDTAVYYCARVRYNWNHGDWFDPWGQGTLVTVSS
VL 1: QSVLTQPPSASGTPGQRVTISCSGSSSNIGNNYVSWYQQLPGTAPKLLIYENYNRPAGVPDRFSGSKSGTSASLAISGLRSEDEADYYCSSWDDSLNYWVFGGGTKLTVLG
VH 2: QVQLVQSGAEVKKPGESLKISCKGSGYSFTNYYIHWVRQMPGKGLEWMGAIYPDNSDTTYSPSFQGQVTISADKSISTAYLQWSSLKASDTAMYYCARGADIWGQGTLVTVSS
VL 2: DIQMTQSPSSLSASVGDRVTITCRASQDIDPYLSNWYQQKPGKAPKLLIYDASNLQSGVPSRFSGSGSGTDFTLTISSLQPEDFATYYCQQTTSHPYTFGQGTKVEIK

Tests used:
[1] = tested on: FGFR2-fusion transformed BaF3 cells; assay: viability assay of BaF3 cells expressing FGFR2 fusions (FIG. 2); assay type: cell-based
From the text: A table showing IC50 (μM) is also provided.
(§1) NIH3T3 cells transformed with FGFR2-BICC1, FGFR2-AHCYL1, and FGFR2-PHGDH fusions were also sensitive to BGJ398 treatment (FIG. 5).

[2] = tested on: NIH3T3 cells transformed with FGFR2-BICC1, FGFR2-AHCYL1, and FGFR2-PHGDH fusions; assay: growth of NIH3T3 cells transformed with FGFR2 fusions (FIG. 5); assay type: cell-based
From the text: as §1

[3] = tested on: FGFR2 fusion-positive ICC; settings: phase II trial; cited from earlier work
[4] = tested on: BaF3 cells overexpressing FGFR2-PHGDH fusion; assay: BaF3 FGFR2-PHGDH cell survival, CellTiter-Glo (FIGS. 18A-18D); assay type: cell-based; settings: no IL3, no FGF, 5 days, 0.013-1 μM
From the text: FIGS. 18A-18D present graphs showing the ability of biparatopic antibodies to impact FGFR2-fusion driven cell growth in BaF3 cells molecularly engineered to overexpress FGFR2-PHGDH fusion. […] These biparatopic antibodies were also more efficient at inhibiting growth of BaF3 cells overexpressing the FGFR2-PHGDH fusion compared to their parental antibodies. The nomenclature of the biparatopic antibodies is based on the designations and descriptions of the parental antibodies presented in FIG. 7B.
(§2) The impact of biparatopic antibodies on FGFR2-fusion driven cell growth was assessed in a cell-based assay using biparatopic antibodies that bind to the ECD of FGFR2 and generated as described supra (Example 4). As described herein, the biparatopic antibodies were added to cultures of cells (e.g., NIH3T3 cells or BaF3 cells) molecularly engineered to overexpress FGFR2 fusion.
In particular, for assays using BaF3 cells (FIGS. 18A-18D), BaF3 cells overexpressing empty vector control or FGFR2-PHGDH fusion construct were plated in the absence of IL3 and FGF in 384 black well plates at a concentration of 750 cells/well overnight. […] The cell survival was measured using CellTiter-Glo at 5 days post treatment and the IC50 curves were generated using non-linear fit in PRISM 9 software. […]

[5] = tested on: NIH3T3 cells overexpressing FGFR2-BICC1 fusion; assay: NIH3T3 FGFR2-BICC1 cell confluency, Incucyte (FIGS. 19A-19E); assay type: cell-based; settings: 60 hours, 0.013-1 μM
Experimental: FIGS. 19A-19E present graphs showing the ability of biparatopic antibodies to impact FGFR2-fusion driven cell growth in NIH3T3 cells molecularly engineered to overexpress FGFR2-BICC1 fusion. […] The nomenclature of the biparatopic antibodies is based on the designations and descriptions of the parental antibodies presented in FIG. 7B.
as §2
For assays using NIH3T3 cells, (FIGS. 19A-19E), NIH3T3 cells overexpressing a FGFR2-BICC1 fusion construct were plated in 384 black well plates at a concentration of 1000 cells/well overnight. 6 parental antibodies and 13 biparatopic antibodies were added to each well in duplicates at various concentrations ranging from 1 μM to 0.013 μM (1 μM, 0.833 μM, 0.600 μM, 0.450 μM, 0.316 μM, 0.233 μM, 0.166 μM, 0.125 μM, 0.091 μM, 0.066 μM, 0.048 μM, 0.035 μM, 0.025 μM, 0.018 μM, and 0.013 μM). The cell confluency was measured using Incucyte at 60 hours post treatment, and the IC50 curves were generated using non-linear fit in PRISM 9 software.

[6] = target: FGFR2b alpha IIIb antigen (UniProt P21802); assay: SPR (Biacore), antibody immobilized, FGFR2b alpha IIIb in flow
[7] = target: FGFR2b alpha IIIb antigen (UniProt P21802); assay: SPR (Biacore), KD matrix by the two arms; unit M from FIG. 17B and paragraph 180; FIG. 17B prints 9.1E-10 for the same antibody

Row | Molecule | sensitivity of FGFR2-fusion transformed BaF3 cells (viability) [1] | sensitivity of NIH3T3 cells transformed with FGFR2 fusions [2] | efficacy in patients with FGFR2 fusion-positive ICC [3] | inhibition of growth of BaF3 cells overexpressing FGFR2-PHGDH compared to control cells overexpressing empty vector [4] | inhibition of growth of NIH3T3 cells overexpressing FGFR2-BICC1 compared to parental antibodies [5] | Binding Stoichiometry [6] | Kd [6] [nM] | Kd [7] [nM]
1 | CCN1CCN(c2ccc(Nc3cc(N(C)C(=O)Nc4c(Cl)c(OC)cc(OC)c4Cl)ncn3)cc2)CC1 [NVP-BGJ398] | sensitive; also recorded: showed sensitivity | sensitive | encouraging efficacy |  |  |  |  | 
2 | B1 |  |  |  | more efficient and potent; also recorded: more effective and potent | more efficient and potent; also recorded: more effective and potent | 1.3 | 0.91 | 0.82
